Experimental data as given in PMC10998593.

Target: GST-NSUN5 (UniProt Q96P11 1-429)
Test: EMSA

Chain of GST-NSUN5 (Q96P11 whole entry): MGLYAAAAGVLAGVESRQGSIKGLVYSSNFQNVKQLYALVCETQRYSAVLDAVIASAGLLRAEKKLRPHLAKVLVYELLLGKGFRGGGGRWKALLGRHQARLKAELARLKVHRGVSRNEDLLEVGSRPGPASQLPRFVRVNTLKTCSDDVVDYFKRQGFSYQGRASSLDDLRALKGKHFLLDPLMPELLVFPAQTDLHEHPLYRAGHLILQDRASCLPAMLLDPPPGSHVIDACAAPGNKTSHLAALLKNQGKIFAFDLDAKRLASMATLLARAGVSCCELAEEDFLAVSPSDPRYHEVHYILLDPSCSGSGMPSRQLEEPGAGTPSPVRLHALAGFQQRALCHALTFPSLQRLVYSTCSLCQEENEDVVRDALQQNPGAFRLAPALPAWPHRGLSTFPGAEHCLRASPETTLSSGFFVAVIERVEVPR

GUCCUUCGGGCUGGUGACAGGG (ssRNA) [Probe1 (Oligo 1), CTNNB1]
binding result: binds
